Broadly, the stoichiometry N is the number of molecules, sites or subunits per partner or assembly.

Consider two substances from article PMC12643800.

Assay [1] concerns the target Escherichia coli L-asparaginase II (AsnB) expressed in and secreted from Corynebacterium glutamicum (E. coli K-12) (UniProt P00805). The assay can be described thus: SEC; Superdex 200 Increase 10/300 GL on FPLC, 0.5 ml/min, 150 ug protein loaded; molecular mass from a calibration curve with carbonic anhydrase, ovalbumin, conalbumin and aldolase; proteins loaded individually. For orientation: Size exclusion chromatography separates by hydrodynamic size, large species first.

Assay [2] addresses commercially available asparaginase Ec-AsnB (MEDAC, Germany) (E. coli) (UniProt P00805). The assay is described as above.

Regarding “Escherichia coli L-asparaginase II (AsnB) expressed in and secreted from Corynebacterium glutamicum (from UniProt P00805 23-348) (enzyme)”, the stoichiometry N in assay [1] worked out at 4.

Turning to “commercially available asparaginase Ec-AsnB (MEDAC, Germany) (from UniProt P00805 23-348) (enzyme)”, the stoichiometry N in assay [2] was found to be 4.
